The target in the test is T1, His-tagged SMAD4 WT (Mothers against decapentaplegic homolog 4) (UniProt Q13485 1-552).
T1 sequence (looked up): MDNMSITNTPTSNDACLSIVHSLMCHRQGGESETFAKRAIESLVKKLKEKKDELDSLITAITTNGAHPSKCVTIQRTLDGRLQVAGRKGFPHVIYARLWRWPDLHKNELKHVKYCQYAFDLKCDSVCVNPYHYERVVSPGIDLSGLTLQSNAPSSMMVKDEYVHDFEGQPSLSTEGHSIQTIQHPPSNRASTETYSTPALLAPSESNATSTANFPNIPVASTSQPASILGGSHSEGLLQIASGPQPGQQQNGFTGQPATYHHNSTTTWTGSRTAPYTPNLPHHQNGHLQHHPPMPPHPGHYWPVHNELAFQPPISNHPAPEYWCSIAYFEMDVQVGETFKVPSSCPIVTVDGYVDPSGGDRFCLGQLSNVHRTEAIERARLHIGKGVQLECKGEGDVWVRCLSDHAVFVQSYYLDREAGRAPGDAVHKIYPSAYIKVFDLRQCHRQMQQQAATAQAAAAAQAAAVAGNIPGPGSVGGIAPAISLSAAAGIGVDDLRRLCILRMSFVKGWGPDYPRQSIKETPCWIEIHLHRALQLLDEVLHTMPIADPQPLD
Put plainly: cell-based or functional assay.

B1: Flag-tagged SMAD3 WT (natural protein, UniProt P84022 1-425, looked up)
chain: MSSILPFTPPIVKRLLGWKKGEQNGQEEKWCEKAVKSLVKKLKKTGQLDELEKAITTQNVNTKCITIPRSLDGRLQVSHRKGLPHVIYCRLWRWPDLHSHHELRAMELCEFAFNMKKDEVCVNPYHYQRVETPVLPPVLVPRHTEIPAEFPPLDDYSHSIPENTNFPAGIEPQSNIPETPPPGYLSEDGETSDHQMNHSMDAGSPNLSPNPMSPAHNNLDLQPVTYCEPAFWCSISYYELNQRVGETFHASQPSMTVDGFTDPSNSERFCLGLLSNVNRNAAVELTRRHIGRGVRLYYIGGEVFAECLSDSAIFVQSPNCNQRYGWHPATVCKIPPGCNLKIFNNQEFAALLAQSVNQGFEAVYQLTRMCTIRMSFVKGWGAEYRRQTVTSTPCWIELHLNGPLQWLDKVLTQMGSPSIRCSSVS
For B1, the “SBE4-luciferase reporter activity upon TGFβ (10 ng/ml) stimulation, HEK293T cells with endogenous SMAD4 and SMAD3, fold-of-change” value was above 3 fold.
